# From paper PMC8703390, “Humanization, Radiolabeling and Biodistribution Studies of an IgG1-Type Antibody Targeting Uncomplexed PSA for Theranostic Applications” (Pharmaceuticals, 2021)
# B1: murine 5A10 monoclonal IgG1 (antibody, V domains shown)
# VH: EVQLVESGPGILQPSQTLSLTCSFSGFSLSTTGMGVSWIRQPSGKGLEWLAHLYWDEDKRYNPSLKSRLTISEDSSRNQVFLKITSVGPADSATYYCARKGYYGYFDYWGQGTALTVSS
# VL: DIVMTQSQKFMSTSVGDRVSVTCKASQNVNTDVAWYQQKPGQSPKALIFSTSYRSSGVPDRFTGSGSGTDFTLTITNVQSEDLAEYFCQQYSNYPLTFGAGTKVDLN
# notes: heavy chain variable domain of m5A10; murine IgG1 heavy chain constant region; light chain variable domain of m5A10; light chain constant region; Murine IgG1; also called m5A10; parental murine antibody m5A10; source: provided by the University of Turku (Finland), prepared as previously described [8]
# B2: murine 5A10 conjugated with p-SCN-Bn-CHX-A''-DTPA (antibody, V domains shown)
# VH: B1 VH
# VL: B1 VL
# notes: as the heavy chain variable domain of m2; murine IgG1 heavy chain constant region, as in m2; as the light chain variable domain of m2; as the light chain constant region of m2; Murine IgG1; also called m5A10-DTPA; DTPA-m5A10; source: provided by the University of Turku (Finland); conjugated with p-SCN-Bn-CHX-A''-DTPA and separated from free chelate on a NAP-5 column
# B3: humanized 5A10 conjugated with p-SCN-Bn-CHX-A''-DTPA (antibody, V domains shown)
# VH: QVTLKESGPALVKPTQTLTLTCTFSGFSLSTTGMGVSWIRQPPGKALEWLAHIYWDDDKRYSTSLKTRLTISEDSSKNQVVLTMTNMDPVDTATYYCARKGYYGYFDYWGQGTLVTVSS
# VL: DIQMTQSPSSLSASVGDRVTVTCRASQNVNTDVAWYQQKPGKAPKALIFSTSYLQSGVPSRFSGSGSGTDFTLTISSLQPEDFATYYCQQYSNYPLTFGQGTKVEIK
# notes: as the heavy chain variable domain of m1; IgG1 heavy chain constant region, as in m1; as the light chain variable domain of m1; as the light chain constant region of m1; not described; IgG1; 111In labelling used the 3:1 conjugate, 177Lu labelling the 12:1 conjugate; also called h5A10-DTPA; DTPA-h5A10; source: HEK293 cells, transfected; purified by Protein G chromatography; conjugated with …
# B4: humanized 5A10 IgG1 (antibody, V domains shown)
# VH: B3 VH
# VL: B3 VL
# notes: heavy chain variable domain of h5A10; IgG1 heavy chain constant region; light chain variable domain of h5A10; light chain constant region; not described, only the plasmid name p5A10VlhDhK hints at human kappa; IgG1; Light chain constant region probably human kappa (surmised from the plasmid name and the Vk1 template); also called h5A10; humanized antibody h5A10; source: HEK293 cells, transfected; …
# Target: T1, human kallikrein-2 (hK2) (Homo sapiens, UniProt P20151)
# T1 construct: human kallikrein-2 (hK2), the human protein most similar to PSA; source: bought: Innovagen AB (ELISA)
# T1 sequence (P20151 19-261): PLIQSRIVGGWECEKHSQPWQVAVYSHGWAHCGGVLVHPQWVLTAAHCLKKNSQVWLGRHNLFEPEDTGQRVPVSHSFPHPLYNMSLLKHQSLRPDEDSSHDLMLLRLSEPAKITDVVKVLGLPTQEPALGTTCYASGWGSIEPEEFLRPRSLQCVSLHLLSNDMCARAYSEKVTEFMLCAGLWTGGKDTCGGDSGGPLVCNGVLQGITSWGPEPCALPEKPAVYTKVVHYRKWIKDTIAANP
# Test: SPR; control hK2 antigen; data not shown
# Conditions: both partners purified
row,Binder,binding result
1,B1,"no binding (tested: 100, 50, 25, 12.5 and 10 nM)"
2,B2,"no binding (tested: 100, 50, 25, 12.5 and 10 nM)"
3,B3,"no binding (tested: 100, 50, 25, 12.5 and 10 nM)"

# Target: T1, human kallikrein-2 (hK2)
# Test: ELISA; wells coated with PSA or hK2 (100 uL at 1 ug/mL) overnight; h5A10 dilution series from 5 ug/mL in four-fold steps, 1 h at RT; detected with goat anti-human-AP and pNPP, absorbance at 405 nm
# Conditions: both partners purified
row,binding result,Binder
1,no binding (tested: 5 µg/mL),B4

# Target: T2, prostate-specific antigen (PSA), uncomplexed free PSA (Homo sapiens, UniProt P07288)
# T2 construct: prostate-specific antigen (PSA), human kallikrein; uncomplexed (free) form; also called fPSA; source: bought: Merck (ELISA)
# T2 sequence (P07288 25-261, one chain of several): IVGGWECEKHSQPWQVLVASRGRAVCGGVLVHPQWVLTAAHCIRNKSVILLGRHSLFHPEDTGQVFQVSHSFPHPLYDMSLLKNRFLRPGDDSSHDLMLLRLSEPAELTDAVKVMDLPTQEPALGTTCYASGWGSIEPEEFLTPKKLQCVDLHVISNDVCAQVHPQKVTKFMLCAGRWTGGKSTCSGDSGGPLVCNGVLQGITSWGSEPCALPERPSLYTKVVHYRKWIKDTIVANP
# Test: SPR; Biacore 2000; PSA immobilised on a CM4 chip by amine coupling (900-1000 RU); antibodies at 100, 50, 25, 12.5 and 10 nM in HSP-buffer flown at 30 uL/min; association 4-5 min, dissociation up to 480 min; bi-exponential fits to binding and dissociation curves; KD = Koff/Kon
# Conditions: both partners purified
Kd,koff,kon,Binder
22 pM,5.4e-06 s⁻¹,250000 M⁻¹ s⁻¹,B1
23 pM,6.3e-06 s⁻¹,270000 M⁻¹ s⁻¹,B2
12 pM,4.8e-06 s⁻¹,390000 M⁻¹ s⁻¹,B3
7.7 pM,4.8e-06 s⁻¹,620000 M⁻¹ s⁻¹,B4
